Assay results: patent US20260201355A1 (GENKORE, published 2026)

Target: the molecule itself
Assay: size exclusion chromatography (Superdex 200) of the CWCas12f-gRNA ribonucleoprotein complex
Description: Using the method for production of ribonucleoprotein particles in Example 1.7, the CWCas12f protein was incubated with the gRNA to produce a ribonucleoprotein complex. The ribonucleoprotein complex was analyzed by size exclusion chromatography using a Superdex 200 column.

B1: CWCas12f protein (enzyme)
chain: MGEKSSRRRRNGKSGAWTAAITSCVGGKMAKNTITKTLKLRIVRPYNSAEVEKIVADEKNNREKIALEKNKDKVKEACSKHLKVAAYCTTQVERNACLFCKARKLDDKFYQKLRGQFPDAVFWQEISEIFRQLQKQAAEIYNQSLIELYYEIFIKGKGIANASSVEHYLSDVCYTRAAELFKNAAIASGLRSKIKSNFRLKELKNMKSGLPTTKSDNFPIPLVKQKGGQYTGFEISNHNSDFIIKIPFGRWQVKKEIDKYRPWEKFDFEQVQKSPKPISLLLSTQRRKRNKGWSKDEGTEAEIKKVMNGDYQTSYIEVKRGSKIGEKSAWMLNLSIDVPKIDKGVDPSIIGGIDVGVKSPLVCAINNAFSRYSISDNDLFHFNKKMFARRRILLKKNRHKRAGHGAKNKLKPITILTEKSERFRKKLIERWACEIADFFIKNKVGTVQMENLESMKRKEDSYFNIRLRGFWPYAEMQNKIEFKLKQYGIEIRKVAPNNTSKTCSKCGHLNNYFNFEYRKKNKFPHFKCEKCNFKENADYNAALNISNPKLKSTKEEP
notes: Recombinant protein purified from E. coli and incubated with engineered sgRNA to form the ribonucleoprotein before size exclusion chromatography; The complex also contains the sgRNA, which is not a protein; also called TnpB; wild-type CWCas12f
binding result: binds
